Experimental findings from the supplement of paper PMC11502859 are described below.

The data set has as its system HEK293T. The data set is described as follows: median enrichment of reporter reads in eGFP-reduced (low/intermediate) vs eGFP-high sorted cells (eGFP-extension fusion abundance) (ratio); higher = stronger loss of eGFP-fusion protein abundance (more destabilising extension).
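Further: lentiviral eGFP-IRES-mCherry reporter pool sorted by FACS 96 h post-transduction, gated on mCherry-high cells, Illumina read counts normalized per million, median across four biological replicates.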

With “AGRAPPCMMGKAILPLPPPCFCCLFGEGGGEVGAAAPHPSSLLICTHWPLQTRTSGASPSPPPPCLAAGVAMMGWSSLGQGVL [SCN1B]”, the median enrichment was determined as 3.87. Under “RKPLNVRNVGRPFNIITNFMDIIDFIFVRTLMNVKDVGNALPVVETLEYIREFILVRNHINVKNVGKPLVIVQTC [ZNF780B]” stands 7.09. Consider “RSSPTKGPPETPGTISVSSHQTLALFLLLFGDLHCQNYQFQVNFVGEFPPPPSSGSPRSNVPPATFPLWPPAELICLSHRSWC [S100A7A]”, for which the median enrichment came to 7.95. The figure for CTKAWA [IFNGR2] is 0.778; for “WGNKRKLSPESATSAPSIFSINALYQPQSSLFKLTPC [ZNF474]” it is 8.63; for RDRALRCQGENPSSNPGYLETEKLEF [ITLN2] it is 0.166. The figure for “CGWPRAVRTMKPGQRPGASPAALPTRHPPASPLGAGAHPQHPHLLINISTPGCST [COPE]” is 5.98; for YPHRGAGEGALDN [TMEM203] it is 0.51; for “RPSGPPLPLGQGNQLLRDFSCLEGAVIAPPHCPTVLLGL [FBXW4]” it is 4.69. Under “RQSWCCRPIGRSWKASGCVPAMSWHWQSWRRRRANPRAQRTLRKPAGAESCVGHPTRHPSSLRRPVGRQGSRGFALLLSSRVM [RAB15]” stands 3.13; under EEEEEEEEEE [Glu10], 0.42. Turning to TTTT [Thr04], the median enrichment came out at 0.324. Under WLHNPVYAFCTKKK [ZSCAN5A] stands 8.24; under LPLARSLPSVHRSQFHRWRRCLR [PIPOX], 10.5; under LNWD [PIK3C3], 0.342.

Regarding III [Ile03], the median enrichment came to 3.74. Under “PKWNHLTSAAPDLPGRMPLPLPSSNPQTRTPFLPPQAGPAPGVGSALSTPRAPRPSEGAPAGASDTLQFRAVGGLGHIPVPWL [SECTM1]” stands 1.79; under QTLGNSISCIFDQIVTSFCI [RAB18], 5.83. Regarding “VVRASPYLLLSPCEEDPDLASFPRRGWGVPRVPVLEGPPSPSLITVLFSAPPSAARLQHQGEADAEPHRWESCLWKGAFCYNL [ZNF646]”, the median enrichment is 3.51. Under “ELPGLGGLSGIAMLVAREKKSTANKTTQTKPSTA [FOXA1]” stands 1.47; under “RGASLLSSHSGSSFHPPPSPPPTRGTWWREAGRLFCGIARSSLWCRLVAITCNKAPGKGK [TLE6]”, 21.9. LVRRLGAPPRLRPASISLLQWPAS [IRF8]: the median enrichment is 7.26. Under LKG [SSBP1] stands 0.599; under KIMRHTV [TBC1D32], 6.86; under WRCRHPSPIIKST [CPS1], 8.4. Under WKHFLPKVSGLRYTSIQQCIVIKILFQS [OR2L3] stands 7.3; under QRRQMQTKAT [TWSG1], 0.373; under LSEQVNSRTGAEALPKMK [UVRAG], 0.405. Under KPKEVPGTVSDLERSQKENNIIK [CELA2A] stands 0; under KFVISFICIYVVN [HEATR5B], 13.7; under RGWDPLLKLVASAGLGAAPQRLQLIC [FES], 32.6. As for “CAQDGPRPSMANNHVRHSTSGRCSDASAGAGTPNPWLQNRDPHPDRGSSAFEGFQAGLCGTEAQRGPGTWQRWGREEIQLPSL [CCDC86]”, the median enrichment came out at 5.52.

Take RGQAAPVLGEGG [DEPDC5]: the median enrichment came to 3.76. Under ETGPTHHSPSPSISTWCLVPVHSVNKKP [KLK11] stands 2.42; under “FLGTHSHAHCRSINSNPHFRPKIMRPHLVSTFPRPCSKPNPFLPSGSQNLLSPTATTVLPDFSHSNHSRPAMGNRPSPSVLVK [RNF39]”, 4.59; under QSVISFICCINV [LRP1B], 11.7.

As for EVDV [PRKCB], the median enrichment was found to be 0.313.

In the case of REAWPR [ELOVL1], the median enrichment was determined as 0.427. Under “WSQFPVTRTILATLFESIQVVWPMILLLTYLSTSSGPCPFGKLSFFLLHWGTGC [CLEC5A]” stands 9.24; under QTHGTDSLGN [DPF3], 0.444; under LISLSKSIKRESSLQK [SYNGR4], 8.85. For the substance “QVTGNLSHLPFSSGTTLHKCVPRGSPFLSSSTENAARSSYPSSRGPAAMLYAPEGTLVPRKERKKRDGLWLHFLGP [VAMP8]”, the median enrichment was found to be 7.27. Under LYPFPIHSQINYNGC [SCNM1] stands 7.94; under QQQQQQQQ [Gln08], 0.342. The figure for LTEQLLMSGG [NDUFS5] is 5.57.

Take SCPSFGNILF [RNASET2]: the median enrichment stood at 0.362. The figure for WPMLNTHV [NABP1] is 0.435; for “WVDGRNIFINQIESIYKNGSRILPQFFCQKVCIYVCIYIYLYIYMTDVF [GCC2]” it is 11.6. The figure for “YIWLFMHCGMCSSFSVFRYKVLYQSVIYKVYQHKCW [MLH1]” is 23.5; for RCVHSISEETTHRSFFSLF [GIPC2] it is 8.59; for RAS [ABCF2] it is 0.408.

Turning to “GTSLALLTHPRNTISGTRAAPRTRGYSRHNLIERAPAALTSTAFDTYASLVLLLSSESSCAHAFSRMGSPLAVAASVLALASS [KIAA1522]”, the median enrichment came out at 6.48.

In the case of REAMPWSWD [SLN], the median enrichment was 0.623. The figure for LEIWRIF [RNF148] is 9.09. Under PPPPPPPP [Pro08] stands 1.83. Regarding “WPSLRPTCTSGSKWVSSGSPARVLSECLCVCINICIPFGSIAAV [XPNPEP3]”, the median enrichment came to 17. The figure for “YVLCCIPFSFLQMTMNFKLWGQCCNIFTFSNSQNLKNVKLCLVCFS [INPP4B]” is 5.86; for “GRRADSLAAPVLSPAILPYQGHWPLPSLCEGYFL [CYP2C18]” it is 17. Under “WREGSNGSRELDTVHPNTSPPPGHLEESSARIPRQSSPPAPAVPSCAVLLPHSAPGPCPFIPLKHPLKPLHHFHSQQKVIEHL [HAUS5]” stands 4.17; under LSHA [CACNG6], 0.594; under LHVKTFILVSTVFQ [SCGB1D2], 6.88. On to QCPN [LRRC3B], for which the median enrichment was 0.337. For YDSPGLKLGSRPAR [PTGDS], the median enrichment was 3.48. The figure for WATLSVGFFLEDSTLLPHVLSQLQS [CSTF1] is 4.6.

Take REDAFLFMGFLPWSLSSKCHSGQSFVSVS [NOD1]: the median enrichment came to 33.9. Under YDSISP [CBLN4] stands 0.384; under “QPSSCKAIAKQGGSLQSMPGDYVSQGGPMGMSMAQPSYTPPQMTPHPTQLRHGPPMHSYLPSHPHHPAMMMHGGPPTHPGMTM [MEIS2]”, 3.91; under “YFVLRTDFLPIPFLNIQRLYWPVSFYFFPPDKYFRS [STMN1]”, 15.2. With “SGSVTRCSLIPADLTGPLANPTSNQKCSSVESETGKWLLQDYSLLQKRNQIHEWKSLCKFNFITHNMYYFF [PUM1]”, the median enrichment is 8.89. YILDLFYFLWSKFWCD [MIER1]: the median enrichment was found to be 7.56. For SPYRKAGRL [BCKDHB], the median enrichment turned out to be 19.5. The figure for YRQK [CCR2] is 0.225; for KQGRWERDCLLPLLSSSCLEVEAV [GRM6] it is 6.27.
